# Measurements from article PMC9482650, “Quantitative fragmentomics allow affinity mapping of interactomes” (Nature Communications, 2022).
# Molecular target: FRMPD2_3, Q68DX3
# Experiment: holdup assay
# Design: key: below the threshold = too weak to quantify, mostly under pKd 3.1 to 4
# Conditions: plain residues with an end cap or a label only (N-terminal biotin on a linker: ado-ado)
# Sequence of FRMPD2_3, Q68DX3 (Q68DX3 1073-1166): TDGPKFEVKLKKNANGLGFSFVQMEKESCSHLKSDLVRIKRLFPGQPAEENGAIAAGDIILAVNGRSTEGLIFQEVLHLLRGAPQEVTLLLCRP
row,Binder,pKd
1,"TKEIPNCTSV [SORCS3, Q9UPU3]",below the threshold
2,"QLKSGRDSTV [TMEM178A, Q8NBL3]",below the threshold

# Molecular target: FRMPD4, Q14CM0
# Sequence (Q14CM0 67-160): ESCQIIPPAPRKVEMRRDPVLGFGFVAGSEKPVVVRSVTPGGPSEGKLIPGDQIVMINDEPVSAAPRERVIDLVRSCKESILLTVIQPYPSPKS
# Experiment: holdup assay
# Design: key: below the threshold = too weak to quantify, mostly under pKd 3.1 to 4
# Conditions: plain residues with an end cap or a label only (N-terminal biotin on a linker: ado-ado)
row,Binder,pKd
1,"TKEIPNCTSV [SORCS3, Q9UPU3]",3.65
2,"QLKSGRDSTV [TMEM178A, Q8NBL3]",3.61

# Molecular target: T1, MPP7, Q5T2T1
# T1 sequence (Q5T2T1 134-230, limits assumed, looked up): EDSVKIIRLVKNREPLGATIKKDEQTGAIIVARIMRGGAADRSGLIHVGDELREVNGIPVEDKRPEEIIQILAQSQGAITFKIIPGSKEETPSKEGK
# Experiment: holdup assay
# Design: key: below the threshold = too weak to quantify, mostly under pKd 3.1 to 4
# Conditions: plain residues with an end cap or a label only (N-terminal biotin on a linker: ado-ado)
row,Binder,pKd
1,"TKEIPNCTSV [SORCS3, Q9UPU3]",below the threshold
2,"QLKSGRDSTV [TMEM178A, Q8NBL3]",below the threshold

# Molecular target: T2, DFNB31_2, Q9P202
# T2 sequence (Q9P202 274-371, limits assumed, looked up): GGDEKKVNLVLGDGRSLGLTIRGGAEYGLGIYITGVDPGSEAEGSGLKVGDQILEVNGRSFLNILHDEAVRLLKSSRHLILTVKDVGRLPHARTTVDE
# Experiment: holdup assay
# Design: key: below the threshold = too weak to quantify, mostly under pKd 3.1 to 4
# Conditions: plain residues with an end cap or a label only (N-terminal biotin on a linker: ado-ado)
row,Binder,pKd
1,"TKEIPNCTSV [SORCS3, Q9UPU3]",below the threshold
2,"QLKSGRDSTV [TMEM178A, Q8NBL3]",3.52

# Molecular target: MAGI2_5, Q86UL8
# Sequence (Q86UL8 915-1017): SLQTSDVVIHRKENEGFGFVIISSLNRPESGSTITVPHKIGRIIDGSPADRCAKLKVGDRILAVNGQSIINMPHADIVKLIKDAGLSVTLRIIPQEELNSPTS
# Experiment: holdup assay
# Design: key: below the threshold = too weak to quantify, mostly under pKd 3.1 to 4
# Conditions: plain residues with an end cap or a label only (N-terminal biotin on a linker: ado-ado)
row,Binder,pKd
1,"TKEIPNCTSV [SORCS3, Q9UPU3]",3.99
2,"QLKSGRDSTV [TMEM178A, Q8NBL3]",below the threshold

# Molecular target: MAGI2_3, Q86UL8
# Sequence (Q86UL8 600-682): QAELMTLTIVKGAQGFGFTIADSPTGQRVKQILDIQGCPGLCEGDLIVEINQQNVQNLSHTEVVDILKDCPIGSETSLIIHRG
# Experiment: holdup assay
# Design: key: below the threshold = too weak to quantify, mostly under pKd 3.1 to 4
# Conditions: plain residues with an end cap or a label only (N-terminal biotin on a linker: ado-ado)
row,Binder,pKd
1,"TKEIPNCTSV [SORCS3, Q9UPU3]",3.98
2,"QLKSGRDSTV [TMEM178A, Q8NBL3]",below the threshold

# Molecular target: T3, RAPGEF6, Q8TEU7
# T3 sequence (Q8TEU7 525-625, limits assumed, looked up): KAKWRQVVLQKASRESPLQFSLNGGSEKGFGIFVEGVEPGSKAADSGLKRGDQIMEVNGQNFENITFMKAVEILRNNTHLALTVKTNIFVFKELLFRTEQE
# Experiment: holdup assay
# Design: key: below the threshold = too weak to quantify, mostly under pKd 3.1 to 4
# Conditions: plain residues with an end cap or a label only (N-terminal biotin on a linker: ado-ado)
row,Binder,pKd
1,"TKEIPNCTSV [SORCS3, Q9UPU3]",below the threshold
2,"QLKSGRDSTV [TMEM178A, Q8NBL3]",below the threshold

# Molecular target: NHERF4_1, Q86UT5-2
# Sequence (Q86UT5 other isoform, or with tags, fused parts or gaps): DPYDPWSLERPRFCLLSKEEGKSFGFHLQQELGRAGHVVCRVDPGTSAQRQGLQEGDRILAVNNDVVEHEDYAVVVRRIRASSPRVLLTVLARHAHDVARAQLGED
# Experiment: holdup assay
# Design: key: below the threshold = too weak to quantify, mostly under pKd 3.1 to 4
# Conditions: plain residues with an end cap or a label only (N-terminal biotin on a linker: ado-ado)
row,Binder,pKd
1,"TKEIPNCTSV [SORCS3, Q9UPU3]",4.2
2,"QLKSGRDSTV [TMEM178A, Q8NBL3]",below the threshold

# Molecular target: LDB3, O75112
# Sequence (O75112 1-94): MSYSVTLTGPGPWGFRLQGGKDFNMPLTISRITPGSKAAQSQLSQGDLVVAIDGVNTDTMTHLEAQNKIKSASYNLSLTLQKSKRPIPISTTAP
# Experiment: holdup assay
# Design: key: below the threshold = too weak to quantify, mostly under pKd 3.1 to 4
# Conditions: plain residues with an end cap or a label only (N-terminal biotin on a linker: ado-ado)
row,Binder,pKd
1,"TKEIPNCTSV [SORCS3, Q9UPU3]",below the threshold
2,"QLKSGRDSTV [TMEM178A, Q8NBL3]",below the threshold

# Molecular target: DLG4_3, P78352
# Sequence (P78352 306-403): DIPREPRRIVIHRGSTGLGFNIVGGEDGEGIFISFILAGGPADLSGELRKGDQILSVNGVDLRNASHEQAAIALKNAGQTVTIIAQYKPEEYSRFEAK
# Experiment: holdup assay
# Design: key: below the threshold = too weak to quantify, mostly under pKd 3.1 to 4
# Conditions: plain residues with an end cap or a label only (N-terminal biotin on a linker: ado-ado)
row,Binder,pKd
1,"TKEIPNCTSV [SORCS3, Q9UPU3]",3.71
2,"QLKSGRDSTV [TMEM178A, Q8NBL3]",below the threshold

# Molecular target: GRIP2_6, Q9C0E4
# Sequence (Q9C0E4 648-740): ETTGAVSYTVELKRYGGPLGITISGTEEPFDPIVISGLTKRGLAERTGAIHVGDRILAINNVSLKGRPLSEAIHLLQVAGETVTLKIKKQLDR
# Experiment: holdup assay
# Design: key: below the threshold = too weak to quantify, mostly under pKd 3.1 to 4
# Conditions: plain residues with an end cap or a label only (N-terminal biotin on a linker: ado-ado)
row,Binder,pKd
1,"TKEIPNCTSV [SORCS3, Q9UPU3]",below the threshold
2,"QLKSGRDSTV [TMEM178A, Q8NBL3]",3.49

# Molecular target: CASK, O14936
# Sequence (O14936 487-570): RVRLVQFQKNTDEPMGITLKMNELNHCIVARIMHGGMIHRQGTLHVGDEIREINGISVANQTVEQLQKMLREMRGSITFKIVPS
# Experiment: holdup assay
# Design: key: below the threshold = too weak to quantify, mostly under pKd 3.1 to 4
# Conditions: plain residues with an end cap or a label only (N-terminal biotin on a linker: ado-ado)
row,Binder,pKd
1,"TKEIPNCTSV [SORCS3, Q9UPU3]",below the threshold
2,"QLKSGRDSTV [TMEM178A, Q8NBL3]",3.54

# Molecular target: HTRA2, O43464
# Sequence (O43464 355-458): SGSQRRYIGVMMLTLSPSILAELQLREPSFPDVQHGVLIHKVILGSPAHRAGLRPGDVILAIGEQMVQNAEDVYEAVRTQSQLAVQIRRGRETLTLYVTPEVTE
# Experiment: holdup assay
# Design: key: below the threshold = too weak to quantify, mostly under pKd 3.1 to 4
# Conditions: plain residues with an end cap or a label only (N-terminal biotin on a linker: ado-ado)
row,Binder,pKd
1,"TKEIPNCTSV [SORCS3, Q9UPU3]",below the threshold
2,"QLKSGRDSTV [TMEM178A, Q8NBL3]",3.65

# Molecular target: T4, GRIP1_2, Q9Y3R0
# T4 sequence (Q9Y3R0 145-248, limits assumed, looked up): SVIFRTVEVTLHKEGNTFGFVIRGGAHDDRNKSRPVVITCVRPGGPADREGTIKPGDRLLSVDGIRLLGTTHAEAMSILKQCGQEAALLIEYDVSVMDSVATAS
# Experiment: holdup assay
# Design: key: below the threshold = too weak to quantify, mostly under pKd 3.1 to 4
# Conditions: plain residues with an end cap or a label only (N-terminal biotin on a linker: ado-ado)
row,Binder,pKd
1,"TKEIPNCTSV [SORCS3, Q9UPU3]",below the threshold
2,"QLKSGRDSTV [TMEM178A, Q8NBL3]",below the threshold

# Molecular target: T5, MPDZ_5, O75970
# T5 sequence (O75970 695-796, limits assumed, looked up): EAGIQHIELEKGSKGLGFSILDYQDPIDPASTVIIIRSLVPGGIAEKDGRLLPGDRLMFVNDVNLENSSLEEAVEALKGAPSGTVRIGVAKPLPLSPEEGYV
# Experiment: holdup assay
# Design: key: below the threshold = too weak to quantify, mostly under pKd 3.1 to 4
# Conditions: plain residues with an end cap or a label only (N-terminal biotin on a linker: ado-ado)
row,Binder,pKd
1,"TKEIPNCTSV [SORCS3, Q9UPU3]",below the threshold
2,"QLKSGRDSTV [TMEM178A, Q8NBL3]",3.56

# Molecular target: PDZRN4_1, Q6ZMN7
# Sequence (Q6ZMN7 213-318): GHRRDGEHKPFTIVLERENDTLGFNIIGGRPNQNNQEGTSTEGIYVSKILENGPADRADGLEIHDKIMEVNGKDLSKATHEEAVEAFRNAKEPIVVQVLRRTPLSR
# Experiment: holdup assay
# Design: key: below the threshold = too weak to quantify, mostly under pKd 3.1 to 4
# Conditions: plain residues with an end cap or a label only (N-terminal biotin on a linker: ado-ado)
row,Binder,pKd
1,"TKEIPNCTSV [SORCS3, Q9UPU3]",3.94
2,"QLKSGRDSTV [TMEM178A, Q8NBL3]",3.53

# Molecular target: T6, MPDZ_10, O75970
# T6 sequence (O75970 1624-1722, limits assumed, looked up): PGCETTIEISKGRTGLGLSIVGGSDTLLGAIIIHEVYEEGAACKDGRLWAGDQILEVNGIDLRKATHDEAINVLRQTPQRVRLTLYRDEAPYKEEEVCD
# Experiment: holdup assay
# Design: key: below the threshold = too weak to quantify, mostly under pKd 3.1 to 4
# Conditions: plain residues with an end cap or a label only (N-terminal biotin on a linker: ado-ado)
row,Binder,pKd
1,"TKEIPNCTSV [SORCS3, Q9UPU3]",3.83
2,"QLKSGRDSTV [TMEM178A, Q8NBL3]",3.63

# Molecular target: Inadl_2, Q8NI35
# Sequence (Q8NI35 238-335): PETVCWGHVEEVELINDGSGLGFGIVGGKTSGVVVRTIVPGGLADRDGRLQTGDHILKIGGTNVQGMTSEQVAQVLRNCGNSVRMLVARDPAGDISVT
# Experiment: holdup assay
# Design: key: below the threshold = too weak to quantify, mostly under pKd 3.1 to 4
# Conditions: plain residues with an end cap or a label only (N-terminal biotin on a linker: ado-ado)
row,Binder,pKd
1,"TKEIPNCTSV [SORCS3, Q9UPU3]",below the threshold
2,"QLKSGRDSTV [TMEM178A, Q8NBL3]",below the threshold

# Molecular target: T7, RADIL, Q96JH8
# T7 sequence (Q96JH8 971-1071, limits assumed, looked up): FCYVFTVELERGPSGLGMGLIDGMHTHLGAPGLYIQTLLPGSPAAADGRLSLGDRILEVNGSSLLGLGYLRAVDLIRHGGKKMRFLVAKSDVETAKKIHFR
# Experiment: holdup assay
# Design: key: below the threshold = too weak to quantify, mostly under pKd 3.1 to 4
# Conditions: plain residues with an end cap or a label only (N-terminal biotin on a linker: ado-ado)
row,Binder,pKd
1,"TKEIPNCTSV [SORCS3, Q9UPU3]",4.05
2,"QLKSGRDSTV [TMEM178A, Q8NBL3]",3.51

# Molecular target: MAGI3_2, Q5TCQ9
# Sequence (Q5TCQ9 398-503): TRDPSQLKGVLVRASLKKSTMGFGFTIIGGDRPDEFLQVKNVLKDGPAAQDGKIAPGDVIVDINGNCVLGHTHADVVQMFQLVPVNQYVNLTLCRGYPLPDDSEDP
# Experiment: holdup assay
# Design: key: below the threshold = too weak to quantify, mostly under pKd 3.1 to 4
# Conditions: plain residues with an end cap or a label only (N-terminal biotin on a linker: ado-ado)
row,Binder,pKd
1,"TKEIPNCTSV [SORCS3, Q9UPU3]",4.67
2,"QLKSGRDSTV [TMEM178A, Q8NBL3]",4.12

# Molecular target: T8, LRRC7, Q96NW7
# T8 sequence (Q96NW7 1440-1537, limits assumed, looked up): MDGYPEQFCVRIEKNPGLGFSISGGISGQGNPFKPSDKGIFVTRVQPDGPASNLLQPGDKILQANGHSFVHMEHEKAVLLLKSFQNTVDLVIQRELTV
# Experiment: holdup assay
# Design: key: below the threshold = too weak to quantify, mostly under pKd 3.1 to 4
# Conditions: plain residues with an end cap or a label only (N-terminal biotin on a linker: ado-ado)
row,Binder,pKd
1,"TKEIPNCTSV [SORCS3, Q9UPU3]",below the threshold
2,"QLKSGRDSTV [TMEM178A, Q8NBL3]",below the threshold

# Molecular target: IL16_1, Q14005
# Sequence (Q14005 210-306): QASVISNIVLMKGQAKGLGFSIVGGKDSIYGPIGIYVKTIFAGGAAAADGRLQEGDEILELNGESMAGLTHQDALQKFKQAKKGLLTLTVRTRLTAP
# Experiment: holdup assay
# Design: key: below the threshold = too weak to quantify, mostly under pKd 3.1 to 4
# Conditions: plain residues with an end cap or a label only (N-terminal biotin on a linker: ado-ado)
row,Binder,pKd
1,"TKEIPNCTSV [SORCS3, Q9UPU3]",below the threshold
2,"QLKSGRDSTV [TMEM178A, Q8NBL3]",below the threshold

# Molecular target: PTPN3, P26045
# Sequence (P26045 505-587): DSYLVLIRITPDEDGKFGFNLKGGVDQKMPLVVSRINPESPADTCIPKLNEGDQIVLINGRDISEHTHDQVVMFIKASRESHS
# Experiment: holdup assay
# Design: key: below the threshold = too weak to quantify, mostly under pKd 3.1 to 4
# Conditions: plain residues with an end cap or a label only (N-terminal biotin on a linker: ado-ado)
row,Binder,pKd
1,"TKEIPNCTSV [SORCS3, Q9UPU3]",4.74
2,"QLKSGRDSTV [TMEM178A, Q8NBL3]",4.4

# Molecular target: T9, GRIP1_7, Q9Y3R0
# T9 sequence (Q9Y3R0 999-1096, limits assumed, looked up): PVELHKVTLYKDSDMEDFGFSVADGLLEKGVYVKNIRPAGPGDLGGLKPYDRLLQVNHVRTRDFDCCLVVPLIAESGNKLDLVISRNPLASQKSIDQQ
# Experiment: holdup assay
# Design: key: below the threshold = too weak to quantify, mostly under pKd 3.1 to 4
# Conditions: plain residues with an end cap or a label only (N-terminal biotin on a linker: ado-ado)
row,Binder,pKd
1,"TKEIPNCTSV [SORCS3, Q9UPU3]",below the threshold
2,"QLKSGRDSTV [TMEM178A, Q8NBL3]",below the threshold

# Molecular target: MAST1, Q9Y2H9
# Sequence (Q9Y2H9 962-1065): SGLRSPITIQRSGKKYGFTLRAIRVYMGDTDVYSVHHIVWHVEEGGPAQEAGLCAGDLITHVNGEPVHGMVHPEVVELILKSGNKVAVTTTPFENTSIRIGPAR
# Experiment: holdup assay
# Design: key: below the threshold = too weak to quantify, mostly under pKd 3.1 to 4
# Conditions: plain residues with an end cap or a label only (N-terminal biotin on a linker: ado-ado)
row,Binder,pKd
1,"TKEIPNCTSV [SORCS3, Q9UPU3]",4.99
2,"QLKSGRDSTV [TMEM178A, Q8NBL3]",4.02

# Molecular target: T10, MPP6, Q9NZW5
# T10 sequence (Q9NZW5 125-219, limits assumed, looked up): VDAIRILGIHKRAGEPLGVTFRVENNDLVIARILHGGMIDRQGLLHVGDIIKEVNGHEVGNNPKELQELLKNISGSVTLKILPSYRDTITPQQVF
# Experiment: holdup assay
# Design: key: below the threshold = too weak to quantify, mostly under pKd 3.1 to 4
# Conditions: plain residues with an end cap or a label only (N-terminal biotin on a linker: ado-ado)
row,Binder,pKd
1,"TKEIPNCTSV [SORCS3, Q9UPU3]",below the threshold
2,"QLKSGRDSTV [TMEM178A, Q8NBL3]",3.8

# Molecular target: Inadl_4, Q8NI35
# Sequence (Q8NI35 547-651): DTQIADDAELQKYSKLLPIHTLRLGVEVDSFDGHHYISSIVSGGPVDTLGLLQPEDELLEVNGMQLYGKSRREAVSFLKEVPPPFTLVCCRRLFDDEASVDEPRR
# Experiment: holdup assay
# Design: key: below the threshold = too weak to quantify, mostly under pKd 3.1 to 4
# Conditions: plain residues with an end cap or a label only (N-terminal biotin on a linker: ado-ado)
row,Binder,pKd
1,"TKEIPNCTSV [SORCS3, Q9UPU3]",below the threshold
2,"QLKSGRDSTV [TMEM178A, Q8NBL3]",below the threshold

# Molecular target: GIPC2, Q8TF65
# Sequence (Q8TF65 112-203): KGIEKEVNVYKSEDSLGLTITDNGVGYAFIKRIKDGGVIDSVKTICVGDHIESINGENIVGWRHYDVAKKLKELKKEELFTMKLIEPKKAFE
# Experiment: holdup assay
# Design: key: below the threshold = too weak to quantify, mostly under pKd 3.1 to 4
# Conditions: plain residues with an end cap or a label only (N-terminal biotin on a linker: ado-ado)
row,Binder,pKd
1,"TKEIPNCTSV [SORCS3, Q9UPU3]",3.83
2,"QLKSGRDSTV [TMEM178A, Q8NBL3]",3.87
